The record followed here is publication PMC8047080, “Engineering Cofactor Specificity of a Thermostable Phosphite Dehydrogenase for a Highly Efficient and Robust NADPH Regeneration System” (Frontiers in Bioengineering and Biotechnology, 2021).

Data set [1] relates to NC(=O)c1ccc[n+]([C@@H]2O[C@H](COP(=O)(O)OP(=O)(O)OC[C@H]3O[C@@H](n4cnc5c(N)ncnc54)[C@H](O)[C@@H]3O)[C@@H](O)[C@H]2O)c1. Briefly: purified protein. Particulars: 1 mM phosphite, 100 mM MOPS pH 7.3.
Data set [2] has as its system NC(=O)c1ccc[n+]([C@@H]2O[C@H](COP(=O)(O)OP(=O)(O)OC[C@H]3O[C@@H](n4cnc5c(N)ncnc54)[C@H](OP(=O)(O)O)[C@@H]3O)[C@@H](O)[C@H]2O)c1. Briefly: purified protein. As to conditions: 1 mM phosphite, 100 mM MOPS pH 7.3.
Another data set concerns O=[PH](O)O. In words: purified protein. As to conditions: 1 mM NADP as co-substrate, 100 mM MOPS pH 7.3.
Data set [3] deals with T1, shikimate dehydrogenase (SDH) (Thermus thermophilus, UniProt Q5SJF8).
T1 construct: gene aroE; pET-11a in E. coli Rosetta 2 (DE3) pLysS; heat treatment at 80°C and HiTrap SP purification
T1 sequence (Q5SJF8 1-263): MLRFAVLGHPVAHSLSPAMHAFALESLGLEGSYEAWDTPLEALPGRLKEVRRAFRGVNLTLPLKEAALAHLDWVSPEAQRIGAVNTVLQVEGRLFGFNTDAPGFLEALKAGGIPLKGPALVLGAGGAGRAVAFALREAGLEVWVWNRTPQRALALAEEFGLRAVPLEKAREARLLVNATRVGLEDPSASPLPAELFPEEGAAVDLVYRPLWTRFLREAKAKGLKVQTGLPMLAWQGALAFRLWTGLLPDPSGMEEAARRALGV
In words: HPLC ([…] nm) of shikimic acid formed in coupled reaction with RsPtxD. It is filed as biochemical. Particulars: NADPH regenerated from 0.1 mM NADP by RsPtxD HARRA mutant; 20 mM phosphite; 100 mM HEPES pH 8.0; 45°C.

Substrate in data set [4]: NC(=O)c1ccc[n+]([C@@H]2O[C@H](COP(=O)(O)OP(=O)(O)OC[C@H]3O[C@@H](n4cnc5c(N)ncnc54)[C@H](O)[C@@H]3O)[C@@H](O)[C@H]2O)c1
In words: purified protein. As to conditions: 1 mM phosphite, 100 mM MOPS pH 7.3. This is another data set of the same source.

Substrate in data set [5]: NC(=O)c1ccc[n+]([C@@H]2O[C@H](COP(=O)(O)OP(=O)(O)OC[C@H]3O[C@@H](n4cnc5c(N)ncnc54)[C@H](OP(=O)(O)O)[C@@H]3O)[C@@H](O)[C@H]2O)c1
Briefly: purified protein. As to conditions: 1 mM phosphite, 100 mM MOPS pH 7.3. This is another data set of the same source.

Substrate in data set [6]: O=[PH](O)O
In words: purified protein. As to conditions: 1 mM NAD as co-substrate, 100 mM MOPS pH 7.3.

By Km is commonly meant the concentration of substrate that gives half-maximal velocity. By kcat/Km is commonly meant the second-order rate constant that governs catalysis at low substrate concentration. With “RsPtxD (Ralstonia sp. 4506; C174H/D175A/I177K/P176R/P178A)”, in data set [1], the Km turned out to be 130 ± 10.6 µM, the kcat was determined as 154 ± 7.5 min^–1 and the kcat/Km came out at 20000 M⁻¹ s⁻¹. In data set [2], the Km is 4.4 ± 0.9 µM, the kcat worked out at 129 ± 12.1 min^–1 and the kcat/Km was determined as 493000 M⁻¹ s⁻¹. Besides, the Km in the data set on O=[PH](O)O was found to be 27 ± 9.0 µM.
Take “RsPtxD (Ralstonia sp. 4506; D175A/P176R)”: in data set [1], the Km stood at 412 ± 21.5 µM, the kcat is listed as 115 ± 13.0 min^–1 and the kcat/Km was determined as 5000 M⁻¹ s⁻¹. In addition, in data set [2], the Km worked out at 56 ± 5.1 µM, the kcat was determined as 91.1 ± 3.9 min^–1 and the kcat/Km amounted to 26700 M⁻¹ s⁻¹.
For the molecule “RsPtxD (Ralstonia sp. 4506; C174H/D175A/I177R/P176R/P178A)”, the Km in data set [1] turned out to be 112 ± 1.3 µM; in data set [2], 2.9 ± 0.5 µM; with O=[PH](O)O it was 38 ± 8.5 µM. In addition, the kcat in data set [1] came out at 148 ± 14.8 min^–1; in data set [2], 128 ± 16.6 min^–1. Further, the kcat/Km in data set [1] was 21700 M⁻¹ s⁻¹; in data set [2], 735000 M⁻¹ s⁻¹.
With “RsPtxD (Ralstonia sp. 4506; C174H/D175A/P176R)”, in data set [1], the Km amounted to 154 ± 14.7 µM, the kcat was found to be 155 ± 2.3 min^–1 and the kcat/Km was determined as 16700 M⁻¹ s⁻¹. In data set [2], the Km is 24 ± 5.2 µM, the kcat is given as 118 ± 6.8 min^–1 and the kcat/Km was found to be 81700 M⁻¹ s⁻¹.
For `NC(=O)C1=CN([C@@H]2O[C@H](COP(=O)(O)OP(=O)(O)OC[C@H]3O[C@@H](n4cnc5c(N)ncnc54)[C@H](OP(=O)(O)O)[C@@H]3O)[C@@H](O)[C@H]2O)C=CC1` [NADPH], the “HPLC (230 nm) of shikimic acid formed in coupled reaction with RsPtxD” value in data set [3] was “SDH catalyzes the reduction of 3-DHS to SA”.

B1: RsPtxD (Ralstonia sp. 4506) (protein)
chain: MKPKVVLTHWVHPEIIELLSASADVIPNTTRETLPRSEVIARAKDADALMAFMPDSIDSAFLEECPKLRVIGAALKGYDNFDVNACTRHGVWLTIVPDLLTIPTAELTIGLLLGLTRHMLEGDRQIRSGHFQGWRPTLYGSGLTGKTLGIIGMGAVGRAIAQRLAGFEMNLLYCDPIPLNAEQEKAWHVQRVTLDELLEKCDYVVPMVPMAAETLHLIDATALAKMKTGSYLINACRGSVVDENAVIAALASGKLAGYAADVFEMEEWIRADRPQAIPKALLDNTAQTFFTPHLGSAVKEVRLEIERQAAMNIIQALAGEKPMGAINQPYPGVKAA
For B1, in the data set “purified protein [4]”, the Km is 7.7 ± 2.3 µM, the kcat amounted to 127 ± 16.8 min^–1 and the kcat/Km amounted to 277000 M⁻¹ s⁻¹. In “purified protein [5]”, the Km is 418 ± 38.7 µM and the kcat stood at 16.0 ± 6.3 min^–1. Also, in the data set “purified protein [6]”, the Km came out at 37.0 ± 7.0 µM.
